PMC10589346, “Structural basis for recruitment of TASL by SLC15A4 in human endolysosomal TLR signaling” (Nature Communications, 2023)

Tests used:
[1] = target: the molecule itself; experiment: cryo-EM structure; SLC15A4-ALFA tag co-expressed with ALFA nanobody in HEK293F, complex purified (Strep-Tactin, SEC) in LMNG/CHS; monomeric and dimeric particles found, monomer solved at 3.25 Å
[2] = target: T1, human SLC15A4 with C-terminus flag-tag (co-expressed with TASL(1–20)-EGFP for cryo-EM) (human, UniProt Q8N697 1-577, N-glycosylation at N436); experiment: cryo-EM structure; SLC15A4-Flag and TASL(1–20)-EGFP-twin Strep co-expressed in HEK293F, complex purified by Strep-Tactin and SEC; 25 mM HEPES pH 7.4, 150 mM NaCl, 0.003% LMNG, 0.0003% CHS; 10–15 mg/ml; 3.03 Å, no symmetry imposed; settings: both partners purified
T1 construct: human SLC15A4 (solute carrier family 15 member 4, PHT1), codon-optimized full-length cDNA, Uniprot Q8N697; pcDNA3.1 vector; residues 1–31 not visible in the map; also called PHT1; Solute carrier family 15 member 4; source: HEK293F, co-transfected with TASL(1–20)-EGFP, complex purified (Strep-Tactin, SEC) in LMNG/CHS; not shown: Flag, C-terminal, kept
T1 sequence (Q8N697 whole entry, the tested form may be a part): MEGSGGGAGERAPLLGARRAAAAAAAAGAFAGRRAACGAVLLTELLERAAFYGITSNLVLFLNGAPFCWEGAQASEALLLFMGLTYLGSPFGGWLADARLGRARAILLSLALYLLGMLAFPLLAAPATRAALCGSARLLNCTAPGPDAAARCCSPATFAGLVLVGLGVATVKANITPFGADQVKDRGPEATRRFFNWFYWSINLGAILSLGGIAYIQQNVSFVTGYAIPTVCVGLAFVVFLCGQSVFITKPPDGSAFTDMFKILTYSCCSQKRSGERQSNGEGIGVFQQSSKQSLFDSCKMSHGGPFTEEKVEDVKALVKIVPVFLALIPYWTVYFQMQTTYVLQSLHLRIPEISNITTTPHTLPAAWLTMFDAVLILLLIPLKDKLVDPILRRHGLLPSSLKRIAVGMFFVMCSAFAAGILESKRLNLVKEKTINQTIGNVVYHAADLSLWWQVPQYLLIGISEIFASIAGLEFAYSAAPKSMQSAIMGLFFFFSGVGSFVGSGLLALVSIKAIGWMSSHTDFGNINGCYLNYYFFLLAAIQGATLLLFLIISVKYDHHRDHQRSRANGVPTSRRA

[3] = target: the molecule itself; experiment: cryo-EM structure; apo SLC15A4 (twin Strep-tag) from HEK293F in LMNG/CHS micelles; 25 mM HEPES pH 7.4, 150 mM NaCl; monomeric and dimeric particles found, dimer solved at 2.93 Å

B1: human SLC15A4 with the 253–303 residues replaced by an ALFA tag (natural protein)
chain: not shown
modifications: N-glycosylation at N436
notes: human SLC15A4, Uniprot Q8N697, from the start to residue 252; ALFA tag, put in place of residues 253–303 (loop between TM6 and TM7); human SLC15A4, Uniprot Q8N697, from residue 304 to the end; The complex was purified on Strep-Tactin by a 'similar protocol'; also called ALFA tagged SLC15A4; SLC15A4-ALFA tag; source: HEK293F, co-transfected with ALFA nanobody, complex purified (Strep-Tactin, SEC) …
binding result [1]: binds

B2: TASL(1–20)-EGFP with C-terminus twin Strep-tag (domain or fragment, human, UniProt Q9HAI6 1-20, looked up)
chain: MLSEGYLSGLEYWNDIHWSC
notes: pCAG vector; also called CXorf21; source: HEK293F, co-transfected with SLC15A4-Flag, complex purified (Strep-Tactin, SEC) in LMNG/CHS; not shown: EGFP, C-terminal, kept; twin Strep-tag, C-terminal, kept
stoichiometry N [2]: 1

B3: human full-length SLC15A4 with C-terminus tandem twin Strep-tag (natural protein)
chain: not shown
modifications: N-glycosylation at N436
notes: human SLC15A4 (solute carrier family 15 member 4, PHT1), codon-optimized full-length cDNA, Uniprot Q8N697; also called apo SLC15A4; C-terminal strep-tagged SLC15A4; source: HEK293F, transfected, purified (Strep-Tactin, SEC) in LMNG/CHS; also co-expressed in HEK293F with TASL(1–20&207–301)-Flag; not shown: twin Strep-tag, C-terminal, kept
stoichiometry N [3]: 2
